B1: Subtilisin inhibitor, P01006 (parent)
chain: MRNTGAGPSPSVSRPPPSAAPLSGAALAAPGDAPSALYAPSALVLTVGKGVSATTAAPERAVTLTCAPGPSGTHPAAGSACADLAAVGGDLNALTRGEDVMCPMVYDPVLLTVDGVWQGKRVSYERVFSNECEMNAHGSSVFAF

Variants of: B1
Details: Streptomyces albogriseolus; pH 2.3; Thermal; DSC; glycine 25 mM; reversible: yes (70-85%); structure 3SSI; whole UniProt chain shown

Row | Variant | Tm
1 | D114C | 48 °C

Same assay, conditions: Streptomyces albogriseolus; pH 2.4; Thermal; DSC; glycine 25 mM; reversible: yes (70-85%); structure 3SSI; whole UniProt chain shown

Row | Variant | Tm
2 | D114C | 50 °C

Same assay, conditions: Streptomyces albogriseolus; pH 2.5; Thermal; DSC; glycine 25 mM; reversible: yes (70-85%); structure 3SSI; whole UniProt chain shown

Row | Variant | Tm
3 | D114C | 52.5 °C

Same assay, conditions: Streptomyces albogriseolus; pH 2.56; Thermal; DSC; glycine 25 mM; reversible: yes (70-85%); structure 3SSI; whole UniProt chain shown

Row | Variant | Tm
4 | D114C | 53.2 °C

Same assay, conditions: Streptomyces albogriseolus; pH 2.59; Thermal; DSC; glycine 25 mM; reversible: yes (70-85%); structure 3SSI; whole UniProt chain shown

Row | Variant | Tm
5 | D114C | 54.2 °C

Same assay, conditions: Streptomyces albogriseolus; pH 2.68; Thermal; DSC; glycine 25 mM; reversible: yes (70-85%); structure 3SSI; whole UniProt chain shown

Row | Variant | Tm
6 | D114C | 56.2 °C

Same assay, conditions: Streptomyces albogriseolus; pH 2.8; Thermal; DSC; glycine 25 mM; reversible: yes (70-85%); structure 3SSI; whole UniProt chain shown

Row | Variant | Tm
7 | D114C | 58.8 °C

Same assay, conditions: Streptomyces albogriseolus; pH 2.88; Thermal; DSC; glycine 25 mM; reversible: yes (70-85%); structure 3SSI; whole UniProt chain shown

Row | Variant | Tm
8 | D114C | 59.9 °C

Same assay, conditions: Streptomyces albogriseolus; pH 2.89; Thermal; DSC; glycine 25 mM; reversible: yes (70-85%); structure 3SSI; whole UniProt chain shown

Row | Variant | Tm
9 | D114C | 60.5 °C

Same assay, conditions: Streptomyces albogriseolus; pH 2.94; Thermal; DSC; glycine 25 mM; reversible: yes (70-85%); structure 3SSI; whole UniProt chain shown

Row | Variant | Tm | change of melting temperature, mutant - wild type (higher = more stable)
10 | D114C | 61.2 °C | 17.2 °C
11 | D114N | 44.8 °C | 0.88 °C

Same assay, conditions: Streptomyces albogriseolus; pH 3.04; Thermal; DSC; glycine 25 mM; reversible: yes (70-85%); structure 3SSI; whole UniProt chain shown

Row | Variant | Tm | change of melting temperature, mutant - wild type (higher = more stable)
12 | D114C | 63.2 °C | 15.6 °C
13 | D114N | 46.3 °C | -1.29 °C

Same assay, conditions: Streptomyces albogriseolus; pH 3.07; Thermal; DSC; glycine 25 mM; reversible: yes (70-85%); structure 3SSI; whole UniProt chain shown

Row | Variant | Tm | change of melting temperature, mutant - wild type (higher = more stable)
14 | D114C | 64.5 °C | 15.7 °C
15 | D114N | 47.3 °C | -1.43 °C

Same assay, conditions: Streptomyces albogriseolus; pH 3.16; Thermal; DSC; glycine 25 mM; reversible: yes (70-85%); structure 3SSI; whole UniProt chain shown

Row | Variant | Tm | change of melting temperature, mutant - wild type (higher = more stable)
16 | D114C | 66.5 °C | 14.3 °C
17 | D114N | 49.9 °C | -2.28 °C

Same assay, conditions: Streptomyces albogriseolus; pH 3.25; Thermal; DSC; glycine 25 mM; reversible: yes (70-85%); structure 3SSI; whole UniProt chain shown

Row | Variant | Tm | change of melting temperature, mutant - wild type (higher = more stable)
18 | D114C | 68.8 °C | 13.1 °C

Same assay, conditions: Streptomyces albogriseolus; pH 7; Thermal; DSC; phosphate 25 mM; reversible: yes (70-85%); structure 3SSI; whole UniProt chain shown

Row | Variant | Tm | change of melting temperature, mutant - wild type (higher = more stable)
19 | D114C | 95.3 °C | 13.3 °C
20 | D114N | 83.1 °C | 1.07 °C

Same assay, conditions: Streptomyces albogriseolus; pH 9.5; Thermal; DSC; glycine 25 mM; reversible: yes (70-85%); structure 3SSI; whole UniProt chain shown

Row | Variant | Tm | change of melting temperature, mutant - wild type (higher = more stable)
21 | D114C | 95 °C | 14.3 °C
22 | D114N | 82.6 °C | 1.88 °C

Same assay, conditions: Streptomyces albogriseolus; pH 9.75; Thermal; DSC; glycine 25 mM; reversible: yes (70-85%); structure 3SSI; whole UniProt chain shown

Row | Variant | Tm | change of melting temperature, mutant - wild type (higher = more stable)
23 | D114C | 94.8 °C | 14.6 °C
24 | D114N | 82.3 °C | 2.06 °C

Same assay, conditions: Streptomyces albogriseolus; pH 2.9; Thermal; DSC; glycine 25 mM; reversible: yes (70-85%); structure 3SSI; whole UniProt chain shown

Row | Variant | Tm | change of melting temperature, mutant - wild type (higher = more stable)
25 | D114N | 42.3 °C | -2.17 °C

Same assay, conditions: Streptomyces albogriseolus; pH 2.98; Thermal; DSC; glycine 25 mM; reversible: yes (70-85%); structure 3SSI; whole UniProt chain shown

Row | Variant | Tm | change of melting temperature, mutant - wild type (higher = more stable)
26 | D114N | 45.1 °C | -0.2 °C

Same assay, conditions: Streptomyces albogriseolus; pH 3.15; Thermal; DSC; glycine 25 mM; reversible: yes (70-85%); structure 3SSI; whole UniProt chain shown

Row | Variant | Tm | change of melting temperature, mutant - wild type (higher = more stable)
27 | D114N | 50.2 °C | -1.03 °C

Same assay, conditions: Streptomyces albogriseolus; pH 3.19; Thermal; DSC; glycine 25 mM; reversible: yes (70-85%); structure 3SSI; whole UniProt chain shown

Row | Variant | Tm | change of melting temperature, mutant - wild type (higher = more stable)
28 | D114N | 51.4 °C | -1.95 °C

Same assay, conditions: Streptomyces albogriseolus; pH 3.2; Thermal; DSC; glycine 25 mM; reversible: yes (70-85%); structure 3SSI; whole UniProt chain shown

Row | Variant | Tm | change of melting temperature, mutant - wild type (higher = more stable)
29 | D114N | 51.3 °C | -2.3 °C

Same assay, conditions: Streptomyces albogriseolus; pH 3.21; Thermal; DSC; glycine 25 mM; reversible: yes (70-85%); structure 3SSI; whole UniProt chain shown

Row | Variant | Tm | change of melting temperature, mutant - wild type (higher = more stable)
30 | D114N | 51.3 °C | -2.07 °C

Reference: FireProtDB (doi:10.1021/bi00252a018)
